Results from the RNAGym collection of RNA variant scans (doi:10.7554/elife.80360).

B1: HDV Ribozyme (parent)
chain: GGCCGGCAUGGUCCCAGCCUCCUCGCUGGCGCCGGCUGGGCAACAUUCCGAGGGGACCGUCCCCUCGGUAAUGGCGAAUGGGACCCA

Variants of: B1
Experiment: self-cleavage, relative activity (ratio to wild type); higher = more cleavage; co-transcriptional

Variant | self-cleavage
GGCCGGCAUGGUCCCAGCCUCCUCGCUGGCGCCGGCUGGGCAACUUUCCGAGGGGACCGUCCCCUCGGUAAUGGCGUAUGGGACCCA [A45U A77U] | 0.322
GGCCGGCAUGGUCCCAGCCUCCUCGCUGGCGCCGGCUUGGCAACAUUCCGAGGGGACCGUCCCCUCGGUAAGGGCGAAUGGGACCCA [G38U U72G] | 0.145
GGCCGGCAUGGUCCCAGCUUCCUCGCUGGCGCCGGCUGGGCAACAUUCCGAGGGGACCGUCCCCUCGGUAAUGACGAAUGGGACCCA [C19U G74A] | 0.0961
GGCCGGCAUGGUCCCAGCCUCCUCGCUGGCGCCGGAUGGGCAACAUUCCGAGGGGACCGUCCCCUCGGUAAUGGCGAAUGGGACCGA [C36A C86G] | 0.325
GGCCGGCAUGGUCCCAGCCUCCUCGCUGGCGCCGGCUGGGCAACAUUCCGAGGGGACCGGCCCCUCGGUAAUGGCGAAUGGGACCCC [U60G A87C] | 0.831
GGCCGGCAUGGUCCCAGCCUCCUCGCUGGCGCCGGCUGGGCAUCAUUCCGAGGGGACCGUCCUCUCGGUAAUGGCGAAUGGGACCCA [A43U C63U] | 0.554
GGCCGGCAUGGUCCCCGCCUCCUCGCUGGCGCCGGCUGGGCAACCUUCCGAGGGGACCGUCCCCUCGGUAAUGGCGAAUGGGACCCA [A16C A45C] | 0.35
GGCCGGCAUGGUCCAAGCCUCCUCGCUGGCGCCGGCUGGGCAACAUUCCGAGGGGACCGUCCCCUGGGUAAUGGCGAAUGGGACCCA [C15A C66G] | 0.688
GGCCGGCAUGGUCCCAGCCUCCUCGCUGGCGCCGGCUGGGCAACAUUCCGAGGGGACCGUACCGUCGGUAAUGGCGAAUGGGACCCA [C61A C64G] | 0.791
GGCCGGCAUGGUCCCAGCCUCCUCGCUGGCGCCGGCUGGGCAACAGUCCGAGGGGACCGUCCCAUCGGUAAUGGCGAAUGGGACCCA [U46G C64A] | 0.0831
GGCCGGCAUGGUCCCAGCCUCCUCGCUGGCGCGGGCUGGGCAACAUUCCGAGAGGACCGUCCCCUCGGUAAUGGCGAAUGGGACCCA [C33G G53A] | 0.0449
GGCCGGUAUGGUCCCAGCCUCCUCGCUGACGCCGGCUGGGCAACAUUCCGAGGGGACCGUCCCCUCGGUAAUGGCGAAUGGGACCCA [C7U G29A] | 0.0906
GGCCGGCAUGGUCCCAGCCUCCUCGCUGGCGCCGGCUGGGCAACAUUCCGAGGCGACCGUCCCCUCGGUAAUGGUGAAUGGGACCCA [G54C C75U] | 0.358
GGCCGGCAUGGUCCCAGCCUCCUCGCUGGCGCCGACUGGGCAACAAUCCGAGGGGACCGUCCCCUCGGUAAUGGCGAAUGGGACCCA [G35A U46A] | 0.332
GGCCGGCAUGGUCCCAGCCUCCUUGCUGGCGCCGGCUGGGCAACAUUCCGAGGGGACCGUCCCCUCGGUAAUGACGAAUGGGACCCA [C24U G74A] | 0.0639
GGCCGGCAUGGUCCCAGCCUCCUCGCUGGCGCCGGCUGGGCAACAUUCCGAGGGGACCGUCCACGCGGUAAUGGCGAAUGGGACCCA [C63A U65G] | 0.914
GGCCGGCAUGGUCCCAGCCUCCUCGCUGGCGCCGGCUGGGCAACAUUCCGAGGGAACCGUCCCCUAGGUAAUGGCGAAUGGGACCCA [G55A C66A] | 1.07
GGCCGGCAUGGUCCCAGCCUCCUCGCUGGCGCUGGCUGGGCAACAUUCCGAGGGAACCGUCCCCUCGGUAAUGGCGAAUGGGACCCA [C33U G55A] | 0.972
GGCCGGCAUGGUCCCAGCCUCCUCGCUGGCGCCGGCUGGGCAACAUUCCGAGGGGACCGUCCACUCAGUAAUGGCGAAUGGGACCCA [C63A G67A] | 0.35
GGCCGGCAUGGUCCCAGCUUCCUCGCUGGCGCCGGCUGGGCAACAUUCCGAGGGGACCGUCCCCCCGGUAAUGGCGAAUGGGACCCA [C19U U65C] | 0.154
GGCCGGCAUGGUCCCAACCUCCUCGCUGGCGCCGGCUGGGCAACAUUCCGAGGGGACCGUCCCCUCGGUUAUGGCGAAUGGGACCCA [G17A A70U] | 0.616
GGCCGGCAUGGUCCCAGCCUCCUCGCUGGCGCCGGCUGGGCAACAUUCCGAGGGGACCGUCCCCACGGUAAUGGCGAAUGGAACCCA [U65A G82A] | 0.281

Variant | self-cleavage
GGCCGGCAUGGUCCCAUCCUCCUCGCUGGCGCCGGCUGGGCAACAUUCCGAGGGGACCGUCCCCUCGGUAAUUGCGAAUGGGACCCA [G17U G73U] | 0.222
GACCGGCAUGGUCCCAGGCUCCUCGCUGGCGCCGGCUGGGCAACAUUCCGAGGGGACCGUCCCCUCGGUAAUGGCGAAUGGGACCCA [G2A C18G] | 0.0817
GGCCGGCAUGGUCCCAGCCUCCUCGCUGGCGCUGGCUGGGCAACAUCCCGAGGGGACCGUCCCCUCGGUAAUGGCGAAUGGGACCCA [C33U U47C] | 0.682
GGCCGGCAUGGUCCCAGCCUCCUCGCUGGCGCCGACUGGGCAACAUUCUGAGGGGACCGUCCCCUCGGUAAUGGCGAAUGGGACCCA [G35A C49U] | 0.596
GGCCGGCAUGGUCCCAGCCUCCUCGCUGGCGCGGGCUGGGCAACAUUCCGAGGGGACCGUCCCCUCGGUAAUGGCGAAUGCGACCCA [C33G G81C] | 0.151
GGCCGGCAUGGUCCCAGCCUCCUCGCUGGCGCCGGCUGGUCAACAUUCCGAGGGGACCGUCCCCUCGGUAAUGGUGAAUGGGACCCA [G40U C75U] | 0.271
GGCCGGCAUGGUCCCAGCCUCCUCGCUGGCGCCGGGUGGGCAGCAUUCCGAGGGGACCGUCCCCUCGGUAAUGGCGAAUGGGACCCA [C36G A43G] | 0.0519
GGCCGGCAUGGUCCCAGCCUCCUCGCUGGCGCCGGCUGGGCAACAUGCCGAGGGGACCGUCCCCUCGUUAAUGGCGAAUGGGACCCA [U47G G68U] | 1.01
GGCCGGCAUGGUCCCAGCCUCCUCGCUGGCGCCGGCUGGGCAGCAUUCCGAGGGGACCGUCCCCUCGAUAAUGGCGAAUGGGACCCA [A43G G68A] | 0.665
GGCCGGCAUGGUCCCAGCCUCCUCGCUGGCGCCGGCUGGGCAACAUGCCGAGGGGACCGUCCCCUCGGUAACGGCGAAUGGGACCCA [U47G U72C] | 0.554
GGCCGGCAUGGUCCCAGCCUCCUCGCUGGCGCUCGCUGGGCAACAUUCCGAGGGGACCGUCCCCUCGGUAAUGGCGAAUGGGACCCA [C33U G34C] | 0.0978
GGCCGGCAUGGUCCCAGCCUCCUCGCUGUCGCCGGCUGGGCAACAUUCCGAGGGGACCGUCCCCUCGGUAAUGGCGAAUGGGGCCCA [G29U A83G] | 0.0329
GGCCGGCAUGGUCCCAGCCUCCUCGCUGGCGCCGGCUGGGCAACAUUCCGAGGGGACCGUCCCCUCCGUAAUGGCGUAUGGGACCCA [G67C A77U] | 0.707
GGCCGGCAUGGUCCAAGCCUCCUCGCUGGCGCCGGCUGGGCAACAUUCCGAGGGGACCGUCCCCUCGGUGAUGGCGAAUGGGACCCA [C15A A70G] | 0.755
GGCCGGCAUGGUCCCAGCCUCCUAGCUGGCGCCGGCUGGGCAACAUUCCGAGGGGACCGUCCCCUCGGUAAUGGCUAAUGGGACCCA [C24A G76U] | 0.842
GGCCGGCAUGGUCCCAGCCUCCUCGCUGGCGCUGGCUGGGCAACAUUCCGCGGGGACCGUCCCCUCGGUAAUGGCGAAUGGGACCCA [C33U A51C] | 1.3
GGCCGGCAUGGUCCCAGCCUCCUCGCUGGCGGCGGCUGGGCAACAUUCCCAGGGGACCGUCCCCUCGGUAAUGGCGAAUGGGACCCA [C32G G50C] | 0.262
GGCCGGCAUGGUCCCAGCCUCCUCGCUGGCGCCGGCUGGGCAAGAUUCCGAGGGGACCGUCCCCUCGGUAAUGGCGAAUGGGACCCG [C44G A87G] | 0.641
GGACGGCAUGGUCCCAGCCUCCUCGCUGGCGCCGGCUGGGCAACAUUACGAGGGGACCGUCCCCUCGGUAAUGGCGAAUGGGACCCA [C3A C48A] | 0.839
GGCCGGCAUGGUCCCAGCGUCCUCGCUGGCGCCGGCUGGGCAACAUUCCGAAGGGACCGUCCCCUCGGUAAUGGCGAAUGGGACCCA [C19G G52A] | 0.0739
GGCCGGCAUGGUCCCAGCCUCCUCGCUGGCGCCGGCUGGGCAACAUUCCGAGGGGACCGUCCACUCGGUAAUGACGAAUGGGACCCA [C63A G74A] | 0.478
GGCCGGCAUGGUCCCAGCCUCCUCGCUGGCGCCGGCCGGGCAACAUUCCGAGGGGACCGUCCACUCGGUAAUGGCGAAUGGGACCCA [U37C C63A] | 1.03

Variant | self-cleavage
GGCCGGCAUGGUCCCAGCCACCUCGCUGGCGCCGGCUGGGCAACAUUCCGAGGGGACCGUCCCCUCGGUAAUGGCGAAUGAGACCCA [U20A G81A] | 0
GGCCGGCAUGGUCCCAGCCUCCUCUCUGGCGCCGGCUGGGCAACAUCCCGAGGGGACCGUCCCCUCGGUAAUGGCGAAUGGGACCCA [G25U U47C] | 0
GGCCGGCAUGGUCCCAGCCUCCUCGCUGGCGCCGGCUGGGCAAGAUUCCGAGGGGACCGUCCCCUCGGGAAUGGCGAAUGGGACCCA [C44G U69G] | 0.443
GGCCGGCACGGUCCCAGCCUCCUCGCUGGCGCCGGCUGGGCAACAUUCCGAGGGGACCGUCCCCUCGGUACUGGCGAAUGGGACCCA [U9C A71C] | 0.791
GGCCUGCAUGGUCCCAGCCUCCUCGCUGGCGCCGGCUGGGCAAGAUUCCGAGGGGACCGUCCCCUCGGUAAUGGCGAAUGGGACCCA [G5U C44G] | 0.217
GGCCGGCAUGGUCCCAGCCUCCUCGCUGGCGCCGGAUGGGCAACAAUCCGAGGGGACCGUCCCCUCGGUAAUGGCGAAUGGGACCCA [C36A U46A] | 0.244
GGCCGGCAUGGUCCCAGCCUCCUCCCUGGCGCGGGCUGGGCAACAUUCCGAGGGGACCGUCCCCUCGGUAAUGGCGAAUGGGACCCA [G25C C33G] | 0.201
GGCCGGCAUGGUCCCAGCCUCCUCGCUGGCCCCGGCUGAGCAACAUUCCGAGGGGACCGUCCCCUCGGUAAUGGCGAAUGGGACCCA [G31C G39A] | 0.0554
GGCCGGCAUGGUUCCAGCCGCCUCGCUGGCGCCGGCUGGGCAACAUUCCGAGGGGACCGUCCCCUCGGUAAUGGCGAAUGGGACCCA [C13U U20G] | 0.135
GGCCGGCAUGGUCCCAGCCUCCUCGCUGGCGCCGGCUGGGCAACAAUCCGAGGGGACCGUCCCCUCGGUAAUGGCGAAUGGGACCGA [U46A C86G] | 0.831
GGCCGGCAUGGUCCCAGCCUCCUCGCUGGCGCCGGCUUGGCAACAUUCCGAGGGGACCGUCCCCUUGGUAAUGGCGAAUGGGACCCA [G38U C66U] | 0.175
GGCCGGCAUGGUCCCAGCCUCCUCGCUGGCGCCGGCUGGACAACAUUCCGAGGGGACCGUCCCCUCGGUAAUGGCGAAUUGGACCCA [G40A G80U] | 0.217
GGCCGGCAUGGUCCCAGCCUCCUCGCUGGCGCCGGCUGGGCCACAUUCCGAGGGGACCGUCCCCUCGGUAAUGGCGAAUGGCACCCA [A42C G82C] | 0
GGCCGGCAUGGUCCCUCCCUCCUCGCUGGCGCCGGCUGGGCAACAUUCCGAGGGGACCGUCCCCUCGGUAAUGGCGAAUGGGACCCA [A16U G17C] | 0.68
GGCCGGCAUGGUCCCAGCCUCCUCGCUGGCGCCGGCUGGGCAACCUUCCGAGGGGACCGUCCCCUCGGUAAUGGCGAAUGGGAGCCA [A45C C84G] | 0.297
GGCCGGCAUAGUCCCAUCCUCCUCGCUGGCGCCGGCUGGGCAACAUUCCGAGGGGACCGUCCCCUCGGUAAUGGCGAAUGGGACCCA [G10A G17U] | 0.525
GGCCGCCAUGGUCCCAGCCUCCUCGCUGGCGCCGGCUGGGCAACAUUCCGAGGGGACCGUCCCCUCGGUAAUGGCGAAUGUGACCCA [G6C G81U] | 0.0615
GGCCGGCAUGGUCCCAGCCUCCUCGAUGGCGCCGGCUGGGCAACAUUCCGCGGGGACCGUCCCCUCGGUAAUGGCGAAUGGGACCCA [C26A A51C] | 1.13
GGCCGGCAUGGUCCCAGCCUCCUCGCUGGCGGCGGCUGGGCAACAUUCCGAGGGGACAGUCCCCUCGGUAAUGGCGAAUGGGACCCA [C32G C58A] | 0.189
GGCCGGCAUGGUCCCAGCCUCCUCGCUGGCGCCGGCUGGACAACAUUCCGAGGGGACCGUCCCCUCGGUAAUGGCGAAUGGAACCCA [G40A G82A] | 0.358
